Test results reported in article doi:10.1101/2023.12.19.572348.

Molecular target: GRASP65-homologue protein 1 (Grh1) (S. cerevisiae) (UniProt Q04410)
Test: circular dichroism + electron paramagnetic resonance

Sequence of UniProt Q04410 (Q04410 whole entry): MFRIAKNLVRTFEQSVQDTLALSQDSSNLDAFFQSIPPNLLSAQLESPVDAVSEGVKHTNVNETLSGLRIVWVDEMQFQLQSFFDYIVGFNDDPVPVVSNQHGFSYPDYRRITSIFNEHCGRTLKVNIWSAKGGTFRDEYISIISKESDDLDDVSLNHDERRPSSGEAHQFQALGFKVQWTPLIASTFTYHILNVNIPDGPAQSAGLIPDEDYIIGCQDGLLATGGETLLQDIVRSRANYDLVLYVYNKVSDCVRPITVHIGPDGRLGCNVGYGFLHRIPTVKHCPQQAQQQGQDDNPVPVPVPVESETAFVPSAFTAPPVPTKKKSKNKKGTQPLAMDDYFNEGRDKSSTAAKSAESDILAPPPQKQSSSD

With “Acyl-CoA Binding Protein 1 (ACBP) (from UniProt P31787 1-87) (natural protein)” the Kd was > 1000 µM.
